Experiments:
Test in all cases: EMSA
[1] = target: T1, SRF (His-SRF);Elk1 (GST-His-Elk1) (human;human, UniProt P11831;P19419 1-508;1-428, |)
T1 sequence 1: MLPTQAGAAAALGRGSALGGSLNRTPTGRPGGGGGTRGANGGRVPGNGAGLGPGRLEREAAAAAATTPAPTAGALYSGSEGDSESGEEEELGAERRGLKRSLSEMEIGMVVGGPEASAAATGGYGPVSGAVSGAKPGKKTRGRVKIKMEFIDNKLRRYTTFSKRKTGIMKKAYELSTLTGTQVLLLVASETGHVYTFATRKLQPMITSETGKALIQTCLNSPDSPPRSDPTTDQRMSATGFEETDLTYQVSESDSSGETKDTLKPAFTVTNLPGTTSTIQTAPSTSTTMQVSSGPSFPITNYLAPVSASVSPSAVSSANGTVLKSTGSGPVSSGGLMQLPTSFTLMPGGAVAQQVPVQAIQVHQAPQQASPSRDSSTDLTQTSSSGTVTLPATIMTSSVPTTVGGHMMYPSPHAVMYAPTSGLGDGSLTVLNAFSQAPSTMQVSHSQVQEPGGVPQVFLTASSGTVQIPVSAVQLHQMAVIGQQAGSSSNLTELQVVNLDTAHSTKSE
T1 sequence 2: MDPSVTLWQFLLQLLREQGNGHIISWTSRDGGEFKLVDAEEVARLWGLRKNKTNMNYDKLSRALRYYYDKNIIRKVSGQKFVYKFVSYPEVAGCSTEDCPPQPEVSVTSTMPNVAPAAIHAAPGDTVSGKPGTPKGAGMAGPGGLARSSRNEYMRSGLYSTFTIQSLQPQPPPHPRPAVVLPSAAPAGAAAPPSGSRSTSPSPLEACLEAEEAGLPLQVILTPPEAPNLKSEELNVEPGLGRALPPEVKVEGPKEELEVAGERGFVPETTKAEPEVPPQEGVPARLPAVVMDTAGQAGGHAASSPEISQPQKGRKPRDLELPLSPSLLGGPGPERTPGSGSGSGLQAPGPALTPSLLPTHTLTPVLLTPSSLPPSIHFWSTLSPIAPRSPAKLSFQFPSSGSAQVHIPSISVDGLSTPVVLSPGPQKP

SRF (His-SRF) = target: T2, SRF (His-SRF) (human, UniProt P11831 1-508)
T2 sequence: T1 sequence 1

IPMK = IPMK (human, UniProt Q8NFU5 1-416)
Sequence of IPMK (Q8NFU5 whole entry): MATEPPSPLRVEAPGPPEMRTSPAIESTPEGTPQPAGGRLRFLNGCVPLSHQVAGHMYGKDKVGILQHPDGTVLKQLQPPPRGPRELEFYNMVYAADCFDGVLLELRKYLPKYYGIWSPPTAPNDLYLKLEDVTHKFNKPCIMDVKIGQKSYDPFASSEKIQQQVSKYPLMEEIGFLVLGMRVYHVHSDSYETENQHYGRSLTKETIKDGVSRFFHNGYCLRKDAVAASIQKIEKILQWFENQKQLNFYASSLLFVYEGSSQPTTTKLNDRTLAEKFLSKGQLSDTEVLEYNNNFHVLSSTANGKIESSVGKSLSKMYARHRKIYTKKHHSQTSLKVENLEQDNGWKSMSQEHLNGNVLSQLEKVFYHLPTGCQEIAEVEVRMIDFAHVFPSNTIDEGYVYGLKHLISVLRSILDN

B1: c-fos SRE EMSA probe (dsDNA)
DNA 1: CTAAGCTTGCTGACGCAGATGTCCTAATATGGACATCCTGTCCCGGGGA
DNA 2: TCCCCGGGACAGGATGTCCATATTAGGACATCTGCGTCAGCAAGCTTAG
binding result [1]: binds | binding result (SRF (His-SRF)): binds | binding result (IPMK): no binding
